Experimental data: patent US12583886 (KING ABDULLAH UNIVERSITY OF SCIENCE AND TECHNOLOGY, dated 2026)

How the values were obtained:
[1] = biological target: human PCNA N107C, N-terminally Histidine-tagged, coupled to SulfoLink agarose resin (PCNA-Agarose column) (human) (UniProt P12004); assay: salt-gradient elution from PCNA-Agarose column (N107C PCNA on SulfoLink resin), EMG fit of UV 280 nm peak
[2] = biological target: human PCNA N107C, N-terminally Histidine-tagged, coupled to SulfoLink agarose resin (PCNA-Agarose column) (human) (UniProt P12004); assay: salt-gradient elution from PCNA-Agarose column, empirical cumulative integration
[3] = biological target: T1, human PCNA N107C, N-terminally Histidine-tagged, coupled to SulfoLink agarose resin (PCNA-Agarose column) (human, UniProt P12004 1-261, Cys 107 joined by a thioether bond to the iodoacetyl group of SulfoLink agarose resin); assay: as above
T1 construct: Homo-trimeric ring; Immobilised bait on the column; also called N107C-PCNA; Proliferating Cell Nuclear Antigen
Excerpt: Two different methods were used for defining and determining this salt concentration. One method relies on empirical calculations while the second method employs a specific model for the elution peak shape. For both methods, protein elution from the column was monitored by the value recorded by the UV detector at 280 nm. The UV absorption was then plotted on the y-axis versus the NaCl concentration (here denoted as 'c') on the x-axis in the gradient region of each chromatogram. Since linear gradients were used for elution, the conversion is readily feasible from the volume in ml to salt concentration in mM on the x-axis, resulting in direct rescaling of the axis.
A binding assay based on chromatography is presented, where the PCNA-Agarose column is used as an analytical tool. The protein of interest was loaded onto the PCNA-Agarose column at low salt concentration followed by extensive washing with a buffer of an equal ionic strength to remove the non-specifically bound proteins. A salt gradient was applied to the column to elute the bound protein of interest. This gradient region of elution in the chromatogram was used for the subsequent analysis. […] The resulting data points, i.e., UV units versus salt concentrations, were analyzed either by the empirical method of cumulative integration or by fitting the peak profile with an EMG model. […]

[4] = biological target: T1, human PCNA N107C, N-terminally …; assay: salt-gradient elution from PCNA-Agarose column (N107C PCNA on SulfoLink resin), EMG fit of UV 280 nm peak

T1 sequence (P12004 other isoform, or with tags, fused parts or gaps N107C N107C limits assumed): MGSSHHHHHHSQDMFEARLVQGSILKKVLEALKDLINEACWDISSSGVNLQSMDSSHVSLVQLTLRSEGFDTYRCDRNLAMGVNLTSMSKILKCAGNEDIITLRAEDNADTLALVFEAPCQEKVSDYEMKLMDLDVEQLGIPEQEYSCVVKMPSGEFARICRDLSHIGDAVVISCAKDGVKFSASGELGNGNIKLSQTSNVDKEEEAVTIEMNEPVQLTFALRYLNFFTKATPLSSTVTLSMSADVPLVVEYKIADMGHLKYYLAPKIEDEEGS
Chain of human PCNA N107C, N-terminally Histidine-tagged, coupled to SulfoLink agarose resin (PCNA-Agarose column) (human) (P12004 other isoform, or with tags, fused parts or gaps N107C N107C limits assumed): as above

Row | Elution Peak (mM NaCl, mode of EMG fit) [1] [mM] | median NaCl concentration of elution (50% cumulative elution) [2] [mM] | median NaCl concentration of elution (50% cumulative elution) [3] [mM] | Elution Peak (mM NaCl, mode of EMG fit) [4] [mM] | Molecule
1 | 534 | > 400 | – | – | human DNA polymerase delta (Polδ), four-subunit complex p125/p50/p68/p12 expressed in Sf9 insect cells (from UniProt P28340 1-1107; P49005 1-469; Q15054 1-466; Q9HCU8 1-107) (enzyme)
2 | – | – | > 400 | 513 | human DNA polymerase eta (Polη), native after SUMO protease digestion (enzyme, UniProt Q9Y253 1-713, looked up, mature; also called Poln) MATGQDRVVALVDMDCFFVQVEQRQNPHLRNKPCAVVQYKSWKGGGIIAVSYEARAFGVTRSMWADDAKKLCPDLLLAQVRESRGKANLTKYREASVEVMEIMSRFAVIERASIDEAYVDLTSAVQERLQKLQGQPISADLLPSTYIEGLPQGPTTAEETVQKEGMRKQGLFQWLDSLQIDNLTSPDLQLTVGAVIVEEMRAAIERETGFQCSAGISHNKVLAKLACGLNKPNRQTLVSHGSVPQLFSQMPIRKIRSLGGKLGASVIEILGIEYMGELTQFTESQLQSHFGEKNGSWLYAMCRGIEHDPVKPRQLPKTIGCSKNFPGKTALATREQVQWWLLQLAQELEERLTKDRNDNDRVATQLVVSIRVQGDKRLSSLRRCCALTRYDAHKMSHDAFTVIKNCNTSGIQTEWSPPLTMLFLCATKFSASAPSSSTDITSFLSSDPSSLPKVPVTSSEAKTQGSGPAVTATKKATTSLESFFQKAAERQKVKEASLSSLTAPTQAPMSNSPSKPSLPFQTSQSTGTEPFFKQKSLLLKQKQLNNSSVSSPQQNPWSNCKALPNSLPTEYPGCVPVCEGVSKLEESSKATPAEMDLAHNSQSMHASSASKSVLEVTQKATPNPSLLAAEDQVPCEKCGSLVPVWDMPEHMDYHFALELQKSFLQPHSSNPQVVSAVSHQGKRNPKSPLACTNKRPRPEGMQTLESFFKPLTH
3 | – | – | – | 359 | human DNA polymerase iota (Polι), N-terminally Histidine- and SUMO-tagged (enzyme, UniProt Q9UNA4 1-740, looked up, mature; The SUMO tag was removed only after the PCNA-Agarose step; also called Polt; Poli; not shown: N-terminal Histidine tag and SUMO tag from the pESUMO pro vector) MEKLGVEPEEEGGGDDDEEDAEAWAMELADVGAAASSQGVHDQVLPTPNASSRVIVHVDLDCFYAQVEMISNPELKDKPLGVQQKYLVVTCNYEARKLGVKKLMNVRDAKEKCPQLVLVNGEDLTRYREMSYKVTELLEEFSPVVERLGFDENFVDLTEMVEKRLQQLQSDELSAVTVSGHVYNNQSINLLDVLHIRLLVGSQIAAEMREAMYNQLGLTGCAGVASNKLLAKLVSGVFKPNQQTVLLPESCQHLIHSLNHIKEIPGIGYKTAKCLEALGINSVRDLQTFSPKILEKELGISVAQRIQKLSFGEDNSPVILSGPPQSFSEEDSFKKCSSEVEAKNKIEELLASLLNRVCQDGRKPHTVRLIIRRYSSEKHYGRESRQCPIPSHVIQKLGTGNYDVMTPMVDILMKLFRNMVNVKMPFHLTLLSVCFCNLKALNTAKKGLIDYYLMPSLSTTSRSGKHSFKMKDTHMEDFPKDKETNRDFLPSGRIESTRTRESPLDTTNFSKEKDINEFPLCSLPEGVDQEVFKQLPVDIQEEILSGKSREKFQGKGSVSCPLHASRGVLSFFSKKQMQDIPINPRDHLSSSKQVSSVSPCEPGTSGFNSSSSSYMSSQKDYSYYLDNRLKDERISQGPKEPQGFHFTNSNPAVSAFHSFPNLQSEQLFSRNHTTDSHKQTVATDSHEGLTENREPDSVDEKITFPSDIDPQVFYELPEAVQKELLAEWKRAGSDFHIGHK
4 | – | – | > 400 | 547 | human DNA polymerase kappa (Polκ), N-terminally Histidine- and SUMO-tagged (enzyme, UniProt Q9UBT6 1-870, looked up, mature; The SUMO tag was removed only after the PCNA-Agarose step; also called Polk; not shown: N-terminal Histidine tag and SUMO tag from the pESUMO pro vector) MDSTKEKCDSYKDDLLLRMGLNDNKAGMEGLDKEKINKIIMEATKGSRFYGNELKKEKQVNQRIENMMQQKAQITSQQLRKAQLQVDRFAMELEQSRNLSNTIVHIDMDAFYAAVEMRDNPELKDKPIAVGSMSMLSTSNYHARRFGVRAAMPGFIAKRLCPQLIIVPPNFDKYRAVSKEVKEILADYDPNFMAMSLDEAYLNITKHLEERQNWPEDKRRYFIKMGSSVENDNPGKEVNKLSEHERSISPLLFEESPSDVQPPGDPFQVNFEEQNNPQILQNSVVFGTSAQEVVKEIRFRIEQKTTLTASAGIAPNTMLAKVCSDKNKPNGQYQILPNRQAVMDFIKDLPIRKVSGIGKVTEKMLKALGIITCTELYQQRALLSLLFSETSWHYFLHISLGLGSTHLTRDGERKSMSVERTFSEINKAEEQYSLCQELCSELAQDLQKERLKGRTVTIKLKNVNFEVKTRASTVSSVVSTAEEIFAIAKELLKTEIDADFPHPLRLRLMGVRISSFPNEEDRKHQQRSIIGFLQAGNQALSATECTLEKTDKDKFVKPLEMSHKKSFFDKKRSERKWSHQDTFKCEAVNKQSFQTSQPFQVLKKKMNENLEISENSDDCQILTCPVCFRAQGCISLEALNKHVDECLDGPSISENFKMFSCSHVSATKVNKKENVPASSLCEKQDYEAHPKIKEISSVDCIALVDTIDNSSKAESIDALSNKHSKEECSSLPSKSFNIEHCHQNSSSTVSLENEDVGSFRQEYRQPYLCEVKTGQALVCPVCNVEQKTSDLTLFNVHVDVCLNKSFIQELRKDKFNPVNQPKESSRSTGSSSGVQKAVTRTKRPGLMTKYSTSKKIKPNNPKHTLDIFFK
5 | – | – | – | 340 | human p15, N-terminally Histidine- and SUMO-tagged (other, UniProt Q15004 1-111, looked up, mature; The PCNA-Agarose column was the first step, so the His- and SUMO-tags were still on the protein; not shown: N-terminal Histidine tag and SUMO tag from the pESUMO pro vector) MVRTKADSVPGTYRKVVAARAPRKVLGSSTSATNSTSVSSRKAENKYAGGNPVCVRPTPKWQKGIGEFFRLSPKDSEKENQIPEEAGSSGLGKAKRKACPLQPDHTNDEKE
